Data as given in patent US20220204565A1.
Bridges are numbered along the chain shown (N, C = ends). Where no end group is shown, it is not given here. [ ]: non-standard residue; d: D form. triazolo‑proline = not defined here

B1: cPT 16 (peptide)
peptide: DNIPWK-NH2
modifications: lactam 1-6; not fully specified (residue 4); also: Pro4 triazole substituent: phenyl joined through two spacer atoms
B2: cPT 30 (peptide)
peptide: DNIPWK-NH2
modifications: lactam 1-6; not fully specified (residue 4); also: Pro4 triazole substituent: isoquinoline moiety
B3: cPT 38 (peptide)
peptide: NIPWK
modifications: N-terminus of Asn 1 acylated by succinic acid whose other carboxyl is amide-bonded to Lys 5 side-chain amine (macrocycle; replaces Asp, no primary NH2); Pro 3 is 4-(4-(4-(thiophen-2-yl)phenyl)-1H-1,2,3-triazol-1-yl)proline; C-terminal amide

Biological target: HIV-1 BaL.01 Env gp160 on pseudovirus (HIV-1 BaL.01)
Assay: cell-based or functional assay

Binder	HIV-1Bal.01 infection inhibition IC50 [µM]	other results
B1	2.02	–
B2	5	–
DNIPWK-NH2 (lactam 1-6; not fully specified (residue 4)) [cPT 31]	1.8	–
DNIPWK-NH2 (lactam 1-6; not fully specified (residue 4)) [cPT 32]	7.3	–
DNIPWK-NH2 (lactam 1-6; not fully specified (residue 4)) [cPT 33]	6	–
DNI[4‑(4-((2,2'-bithiophen)-5-yl)-1H-1,2,3-triazol-1-yl)proline]WK-NH2 (lactam 1-6) [cPT 37]	0.405	–
B3	–	HIV-1Bal.01 cell infection inhibition IC50: 0.882 µM; HIV-1 infection inhibition, fold decrease in potency against cPT 36: 8 fold
[dD]NI[triazolo‑proline]WK-NH2 (lactam 1-6; not fully specified; reading uncertain) [cPT 5]	–	HIV-1 infection inhibition, fold decrease in activity against cPT 3: 7 fold
DNI[triazolo‑proline]W[dK]-NH2 (lactam 1-6; not fully specified; reading uncertain) [cPT 4]	–	HIV-1 infection inhibition, fold decrease in activity against cPT 3: > 50 fold
DNI[triazolo‑Pro][benzothienylalanine]K-NH2 (lactam 1-6; not fully specified) [cPT 14]	0.17	–
